Patent US6638905B2, “Cloning and recombinant production of CFR receptor(s)” (priority 1993, dated 2003)
No end group written: not given here.

Key:
[1] = target: T1, CRF-RA1 (hctCRFR) expressed in COSM6 cells (Homo sapiens, UniProt P34998); assay: CRF-R mediated stimulation of intracellular cAMP in COSM6 cells transfected with hctCRFR; type: cell-based; details: receptor transfected COSM6 cells
T1 construct: expressed in transfected cells; host or cells: COSM6 cells, DEAE-dextran transient transfection of clone hctCRFR in pcDNA1
T1 sequence (P34998 24-415): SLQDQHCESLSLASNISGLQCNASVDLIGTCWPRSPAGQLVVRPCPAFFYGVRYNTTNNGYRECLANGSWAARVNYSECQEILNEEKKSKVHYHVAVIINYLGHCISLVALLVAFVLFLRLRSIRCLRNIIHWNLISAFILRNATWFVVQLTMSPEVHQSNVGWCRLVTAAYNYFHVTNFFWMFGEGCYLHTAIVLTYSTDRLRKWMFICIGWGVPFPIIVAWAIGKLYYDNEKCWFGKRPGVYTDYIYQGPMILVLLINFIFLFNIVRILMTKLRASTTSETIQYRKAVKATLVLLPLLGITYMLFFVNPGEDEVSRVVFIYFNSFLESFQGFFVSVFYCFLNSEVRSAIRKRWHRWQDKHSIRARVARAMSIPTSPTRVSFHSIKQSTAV
Procedure: To determine the possible linkage of CRF-R to multiple signaling pathways, the ability of CRF-R to stimulate cAMP formation in CRF-R-expressing COSM6 cells was investigated. To ensure that changes in cAMP levels were not influenced by alterations in cAMP phosphodiesterase, the phosphodiesterase inhibitor 3-isobutyl-1-methylxanthine (IBMX) was added to the medium. COSM6 cells were trypsinized 24 hrs following transfection with either ctCRFR or rGnRHR in 150 mm dishes and were replated in 24-well plates (Costar) and allowed to express the receptors for another 24 hrs in 10% FCS, DMEM.
On the day of the stimulation, the medium was changed to 0.1 w FCS, DMEM at least 2 hrs before a 30 minute preincubation with 0.1 mM IBMX or medium. Test ligands (i.e., r/h CRF, sauvagine, salmon calcitonin, Vasoactive intestinal peptide (VIP), growth hormone releasing factor (GRF) were added in 0.1% BSA, 0.1% FCS, DMEM, and stimulation was carried out for 30 minutes at 37° C., 7.5% CO2. The medium was removed and the cells were extracted overnight with 1 ml ice-cold 95% EtOH-0.1M HCl at −20° C. Cyclic AMP (cAMP) levels were determined in duplicate from triplicate wells by RIA kit (Biomedical Technologies, Stoughton, Mass.) following the manufacturer's protocol.

CRF-RB1 = target: T2, CRF-RB1 (Mus musculus, UniProt Q60748); assay: Competitive displacement of 125I-(Nle21,Tyr32)-ovine CRF from membranes of COSM6 cells transfected with pCRF-RB1; type: binding; details: for displacement of bound radioligand (in words): specificity of binding
T2 construct: The full-length CRF-RB1 receptor cDNA was subcloned into the expression vector pcDNA1; expressed in transfected cells; host or cells: COSM6 cells, DEAE-dextran transient transfection of pCRF-RB1
Procedure: Approximately 10^6 COSM6 cells were transfected with either hctCRFR or rGnRHR (rat gonadotropin releasing hormone receptor) by the DEAE-dextran method and grown in 150 mm tissue culture dishes. Two days after transfection, the cells were washed twice with 1 ml HDB and were detached by incubation for 15 min at room temperature in 0.5 mM EDTA in HDB. After pelleting, the cells were washed twice with HDB, and then homogenized in 5% sucrose (16 ml/150 mm dish). The homogenate was centrifuged at 600×g for 5 minutes, and the resulting supernatant was centrifuged at 40,000×g for 20 minutes. The resulting pellet (containing crude membranes) was resuspended at 1-4 mg/ml in 10% sucrose, and used in a competitive radioreceptor assay to measure binding to the CRF-R as described in Perrin et al., Endoc., 118:1171 (1986).
The reaction was terminated by filtration through GF/C (Whatman) filters, prewetted with 1%BSA, 10 mM HEPES, pH 7.5. The filters were washed 4 times with 1 ml 0.1% BSA, 50 mM Tris, pH 7.5.
Using the methods described in Example 3, a radioreceptor assay was conducted. Approximately […] of pCRF-RB1 plasmid DNA was transfected into COSM6 cells using the DEAE dextran method. […] In order to calculate a Kd the displacement data were analyzed using the Ligand program of Munson and Rodbard (1980), Anal. Biochem., 107:220-239.

[2] = target: T3, hCRF-RA1 (CRF receptor encoded by clone hctCRFR) (Homo sapiens, UniProt P34998); assay: Competitive radioreceptor assay: displacement of 125I-(Nle21,Tyr32)-ovine CRF from membranes of COSM6 cells transfected with hctCRFR; type: binding; details: receptor of SEQ ID NO:2
T3 construct: expressed in transfected cells; host or cells: COSM6 cells, DEAE-dextran transient transfection of clone hctCRFR in pcDNA1
T3 sequence (P34998 24-415): T1 sequence (P34998 24-415)
Procedure: Approximately 10^6 COSM6 cells were transfected with either […] or […] (rat gonadotropin releasing hormone receptor) by the DEAE-dextran method and grown in 150 mm tissue culture dishes. Two days after transfection, the cells were washed twice with 1 ml HDB and were detached by incubation for 15 min at room temperature in 0.5 mM EDTA in HDB. After pelleting, the cells were washed twice with HDB, and then homogenized in 5% sucrose (16 ml/150 mm dish). […] The reaction was terminated by filtration through GF/C (Whatman) filters, prewetted with 1%BSA, 10 mM HEPES, pH 7.5. The filters were washed 4 times with 1 ml 0.1% BSA, 50 mM Tris, pH 7.5. Filter-bound radioactivity, indicating the presence of CRF-R:^125 I-([…],Tyr^32)-ovine CRF complex, was determined by g-scintillation counting.

[3] = target: T4, CRF-RB1 expressed in COSM6 cells (Mus musculus, UniProt Q60748); assay: CRF-RB1 mediated stimulation of intracellular cAMP in COSM6 cells transfected with pCRF-RB1; type: cell-based; details: for stimulation of intracellular cAMP accumulation (in words): FIG. 5
T4 construct: The full-length CRF-RB1 receptor cDNA was subcloned into the expression vector pcDNA1; expressed in transfected cells; host or cells: COSM6 cells, DEAE-dextran transient transfection of pCRF-RB1
Procedure: Using methods described in Example 4, the ability of CRF-RB1 to stimulate cAMP formation in CRF-RB1-expressing COSM6 cells was investigated. The plasmid pCRF-RB1 was transfected into COSM6 cells. One day later, the cells were trypsinized and replated in 10% FBS, DMEM into 24 or 48 well COSTAR tissue culture wells, and allowed to grow another 24 hours. The medium was changed to 0.1% FBS, DMEM at least two hours before treatments. The cells were preincubated for 30 minutes with 0.1 mM 3-isobutyl-1-methylxanthine and then exposed to various peptides for 30 minutes at 37° C. Intracellular cAMP was measured in duplicate from triplicate wells using an RIA kit (Biomedical Technologies, Stoughton, Mass.).

T2 sequence (Q60748 1-431 isoform Q60748-2): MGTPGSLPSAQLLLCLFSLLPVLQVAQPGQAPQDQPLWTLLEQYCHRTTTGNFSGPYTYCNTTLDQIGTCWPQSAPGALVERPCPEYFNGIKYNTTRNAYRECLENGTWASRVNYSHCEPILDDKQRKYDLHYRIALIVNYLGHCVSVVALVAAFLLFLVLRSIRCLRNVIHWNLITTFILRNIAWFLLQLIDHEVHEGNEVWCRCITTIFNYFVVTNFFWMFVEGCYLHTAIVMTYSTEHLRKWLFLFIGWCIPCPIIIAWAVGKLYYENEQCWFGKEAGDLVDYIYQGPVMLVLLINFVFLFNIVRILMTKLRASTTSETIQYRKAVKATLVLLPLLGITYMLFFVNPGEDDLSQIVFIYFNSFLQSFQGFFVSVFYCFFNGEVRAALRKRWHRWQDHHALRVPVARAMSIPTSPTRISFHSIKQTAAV
T4 sequence (Q60748 1-431 isoform Q60748-2): as above

Compound: salmon calcitonin: non-related peptide
- effect on cyclic AMP levels / activity of non-related peptides (in words) [1]: inactive

Compound: NDDPPISIDLTFHLLRNMIEMARIENEREQAGLNRKYLDEV-NH2 (C-terminus assumed) [urotensin]
- affinity of the CRF-Rs for the ligand (in words) (CRF-RB1): high affinity
- Ki (CRF-RB1; on CRF-RB): 0.7 ± 0.3 nM
- affinity of the receptor for the ligand (in words) [2]: high affinity
- stimulation of intracellular cAMP accumulation (in words) [3]: equipotent to CRF

Compound: VIP: vasoactive intestinal peptide, non-related peptide
- displacement of bound radioligand (in words) (CRF-RB1): do not displace
- stimulation of intracellular cAMP accumulation (in words) [3]: do not stimulate
- effect on cyclic AMP levels / activity of non-related peptides (in words) [1]: inactive

Compound: SQEPPISLDLTFHALREVLEMTKADQLAQQAHSNRKLLDIA-NH2 (C-terminus assumed) [[Ala^14]-ovine CRF]
- affinity of the receptor for the ligand (in words) [2]: very low affinity

Compound: CC[C@H](C)[C@H](NC(=O)[C@@H](NC(=O)[C@H](CC(=O)O)NC(=O)[C@H](CC(C)C)NC(=O)[C@H](CC(C)C)NC(=O)[C@H](CC(C)C)NC(=O)[C@H](CCCNC(=N)N)NC(=O)[C@H](CC(N)=O)NC(=O)[C@H](CC(N)=O)NC(=O)[C@H](C)NC(=O)[C@H](C)NC(=O)[C@H](CCC(N)=O)NC(=O)[C@H](CCC(N)=O)NC(=O)[C@H](CCCCN)NC(=O)[C@H](CCC(=O)O)NC(=O)[C@H](CCCCN)NC(=O)[C@H](CCC(=O)O)NC(=O)[C@H](CCC(N)=O)NC(=O)[C@H](CCCCN)NC(=O)[C@H](CCC(=O)O)NC(=O)[C@@H](NC(=O)[C@H](CCC(=O)O)NC(=O)[C@@H](NC(=O)[C@H](CCSC)NC(=O)[C@H](CCCCN)NC(=O)[C@H](CCCNC(=N)N)NC(=O)[C@H](CC(C)C)NC(=O)[C@H](CC(C)C)NC(=O)[C@H](CCC(=O)O)NC(=O)[C@H](CC(C)C)NC(=O)[C@H](CO)NC(=O)[C@H](CC(C)C)NC(=O)[C@H](CC(=O)O)NC(=O)[C@@H](NC(=O)[C@H](CO)NC(=O)[C@@H](NC(=O)[C@@H]1CCCN1C(=O)[C@@H]1CCCN1C(=O)CNC(=O)[C@@H]1CCC(=O)N1)[C@@H](C)CC)[C@@H](C)CC)[C@@H](C)CC)[C@@H](C)CC)[C@@H](C)O)C(N)=O [sauvagine]
- affinity of the CRF-Rs for the ligand (in words) (CRF-RB1): high affinity
- stimulation of intracellular cAMP accumulation (in words) [3]: equipotent to CRF

Compound: ovine CRF
- affinity of the receptor for the ligand (in words) [2]: high affinity

Compound: GRF: growth hormone releasing factor, non-related peptide (YADAIFTNSYRKVLGQLSARKLLQDIMSRQQGESNQERGA)
- displacement of bound radioligand (in words) (CRF-RB1): do not displace
- stimulation of intracellular cAMP accumulation (in words) [3]: do not stimulate
- effect on cyclic AMP levels / activity of non-related peptides (in words) [1]: inactive

Compound: gonadotropin releasing hormone: non-related peptide
- effect on cyclic AMP levels / activity of non-related peptides (in words) [1]: inactive

Compound: (DPhe^12,Nle^21,38)hCRF(12-41)
- affinity of the CRF-Rs for the ligand (in words) (CRF-RB1): high affinity
- affinity of the receptor for the ligand (in words) [2]: high affinity
- inhibition of the CRF signal by antagonist (in words) ([3]; 1 mM antagonist): inhibited
